41 sequences from the nanobody polyreactivity screen of Harvey et al. (2022) can be followed below.

A short description of this data set: yeast display, Sf9 membrane polyspecificity reagent, FACS + sequencing; frameworks hold sequencing errors. The procedure, abridged: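 Nanobodies from a synthetic yeast display library (Saccharomyces cerevisiae BJ5465), induced 36–48 hours with galactose, were stained 1 hour at 4 °C with 10% biotinylated, detergent-solubilized Sf9 membrane reagent, enriched on streptavidin microbeads, then FACS-sorted. Anti-HA (expression) and streptavidin (reagent binding) fluorescence set low and high (top ~1%) gates. Polyreactivity labels come from the gate of origin. Genes were colony-PCR amplified, MiSeq 2 × 250 sequenced and filtered by CDR length.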
As for “QVQLVESGGGLVQAGGSLRLSCAASGYTLGTYAMGWYRQAPGKERELVAAITWSGGRTNYADSVKGRFTISRDNAKNTVYLQMNSLKPEDTAVYYCAARYYFPFRRFRRMDYWGQGTQVTVSS”, the “polyreactivity (PSR sort gate)” value is listed as “high polyreactivity”.

On to “QVQLVESGGGLVQAGGSLRLSCAASGYTLKWYTMGWYRQAPGKERELVATIRRGGGTYYADSVKGRFTISRDNAKNTVYLQMNSLKPEDTAVYYCNARDRRRTNLLDYWGQGTQVTVSS”, for which the “polyreactivity (PSR sort gate)” value was “low polyreactivity”.

Consider “QVQLVESGGGLVQAGGSLRLSCAASGYTLSLNAMGWYRQAPGKEREFVARISGRGGSTYYADSVKGRFTISRDNAKNTVYLQMNSLKPEDTAVYYCAATWWPWGTDNRGMYYWGQGTQVTVSS”, for which the “polyreactivity (PSR sort gate)” value is on record as “high polyreactivity”.

With “QVQLVESGGGLVQAGGSLRLSCAASGYTRFYAMGWYRQAPGTERELVAAISSSGGTTYYADSVKGRFTISRDNAKNTVYLQMNSLKPEDTAVYYCAKYVSYSRTLYDYWGQGTQVTVSS”, the “polyreactivity (PSR sort gate)” value was “low polyreactivity”.

In the case of “QVQLVESGGGLVQAGGSLRLSCAASGYTSAKNGMGWYRQAPGKEREFVAGISRSGSSTYYADSVKGRFTISRDNAKNTVYLQMNSLKPEDTAVYFCAADWSVFTYFYGYDYWGQGTQVTVSS”, the “polyreactivity (PSR sort gate)” value is “low polyreactivity”.

“QVQLVESGGGLVQAGGSLRLSCAASGYTSYTYTMGWYRQAPGKERELVAAISRRSDTTYADSVKGRFTISRDNAKNTVYLQMNSLKPEDTAVYYCAAVRVSYRSLSKSYYWGQGTQVTVSS”: the “polyreactivity (PSR sort gate)” value is listed as “high polyreactivity”.

With “QVQLVESGGGLVQAGGSLRLSCAASGYTVGNNAMGWYRQAPGKERELVARIRTNGGTTYYADSVKGRFTISRDNAKNTVYLQMNSLKPEDTAVYYCNAYRGYEYDYWGQGTQVTVSS”, the “polyreactivity (PSR sort gate)” value is on record as “low polyreactivity”.

In the case of “QVQLVESGGGLVQAGGSLRLSCAASGYTVTSNAMGWYRQAPGKERELVAAITNVGSTNYADSVKGRFTISRDNAKNTVYLQMNSLKPEDTAVYYCAADWDAVYLQTADYDYWGQGSQVTVSS”, the “polyreactivity (PSR sort gate)” value is reported as “low polyreactivity”.

Take “QVQLVESGGGLVQAGGSLRLSCAASGYTYWQYAMGWYRQAPGKERELVATITSRGGSTYYADSVKGRFTISRDNAKNTVYLQMNSLIPEDTAVYYCNARRRYSTRRSDYWGQGTQVTVSS”: the “polyreactivity (PSR sort gate)” value was “high polyreactivity”.

Turning to “QVQLVESGGGLVQAGGSLRLSCAASGYTYYRYAMGWYRQAPGKERELVAAISSSGGTYYADSVKGRFTISRDNAKNTVYLQMNSLKPEDTAVYYSAAEGYYLYNAGLWGYDYWGQGTQVTVSS”, the “polyreactivity (PSR sort gate)” value was “low polyreactivity”.

For the sequence “QVQLVESGGGLVQAGGSLRLSCAASGYVMGWYRQAPGKERELVAAITRGTSTYYADSVKGRFTISRDNAKNTVYLQMNSLKPEDTAVYYCAARTPGVSVYKDGYWGQGTQVTVSS”, the “polyreactivity (PSR sort gate)” value is given as “low polyreactivity”.

“QVQLVESGGGLVQAGGSLRLSCAASRFIFYSNAMGWYRTAPGKERELVASITGDGGTTYYADSVKGRFTISRDNAKNNVYLQMNSLKPEDTAVYYCAKDYIYRGYYTDFRYEDYDYWGQGTQVTVSS”: the “polyreactivity (PSR sort gate)” value is recorded as “low polyreactivity”.

Turning to “QVQLVESGGGLVQAGGSLRLSCAASRFTFRRNAMGWYRQAPGKERELVAAITYNGGTTYYADSVKGRFTISRDNAKNTVYLQMNSLKPEDTAVYYCNAPYGRQGYDYWGQGTQVTVSS”, the “polyreactivity (PSR sort gate)” value is “low polyreactivity”.

For the sequence “QVQLVESGGGLVQAGGSLRLSCAASRFTFTAYAMGWYRQAPGKERELVAAITGTGGSTKYADSVKGRFTISRDNAKNSVDLQMYSLKPEDTAVYYCAAIRFTLRRMDYWGHGTQVTVSS”, the “polyreactivity (PSR sort gate)” value is given as “high polyreactivity”.

Regarding “QVQLVESGGGLVQAGGSLRLSCAASRFYTMGWYRQAPGKERELVAAISWSGGDTYYADSVKGRFTISRDNAKNTVYLQMNSLKPEDTAVYYCAKKTIGSYVHEPYYYWGQGTQVTVSS”, the “polyreactivity (PSR sort gate)” value is reported as “low polyreactivity”.

Consider “QVQLVESGGGLVQAGGSLRLSCAASRFYTMGWYRQAPGKERELVAAISWSGGDTYYADSVKGRFTISRDNAKNTVYLQMNSLKPVDTAVYYRAKKTIGSYVHEPYYYWGQGTQVTVSS”, for which the “polyreactivity (PSR sort gate)” value was “low polyreactivity”.

Take “QVQLVESGGGLVQAGGSLRLSCAASRLIFYTYAMGWYRQAPGKETELVAAISFSGGSTYYADSVTGRFTISRDNAKNTVYLLMTSLKPEDTAVYYCAARGYYGYYYWGQGTQVTVSS”: the “polyreactivity (PSR sort gate)” value is given as “high polyreactivity”.

As for “QVQLVESGGGLVQAGGSLRLSCAASRLTFQQYAMGWYRQAPGKERELVAAITSDGASTNYADSVKGRFTISRDNAKNTVYLQMNSLKPEDTAVYYCAARRRSRQYRYDYWGQGTQVTVSS”, the “polyreactivity (PSR sort gate)” value was “high polyreactivity”.

“QVQLVESGGGLVQAGGSLRLSCAASRLTFRYYAMGWYRQAPGKERELVASISSSSGSTYYADSVKGRFTISRDNAKNTVYFQMNSLKPEDTAVYYCNARGWTLGADFGYWGQGTQVTVSS”: the “polyreactivity (PSR sort gate)” value is recorded as “low polyreactivity”.

With “QVQLVESGGGLVQAGGSLRLSCAASRRIFDHNAMGWYRQAPGKERELVAAISSSGGRTYYADSVKGRFTISRDNAKNTVYLQMNSLKPEDTAVYYCNKVRTVTTYEYWGQGTQVTVSS”, the “polyreactivity (PSR sort gate)” value was “high polyreactivity”.

Consider “QVQLVESGGGLVQAGGSLRLSCAASRRIFLWYAMGWYRQAPGKERELVASITRSGVTTYYADSVKGRFTISRDKAKNTVYLQMNSLKPEDTAVYYCNKDFRGDAIKLDVNYWGQGTQVTVSS”, for which the “polyreactivity (PSR sort gate)” value was “low polyreactivity”.

For “QVQLVESGGGLVQAGGSLRLSCAASRRTFGYYAMGWYRKAPGKEREMVAAIRSTGSTNYADSVKGRFTISRDNAKNSVYLQMNCLKPEDTAVYYCNAKRRFRYDYWGLGTQVTVSS”, the “polyreactivity (PSR sort gate)” value is listed as “low polyreactivity”.

As to “QVQLVESGGGLVQAGGSLRLSCAASRRTFKSSAMGWYRPEPGKERELVAAISRSGGITYYADSVKGRFTISRDNAKNTVYLQMNSLKPEDTAVYYCAAVGYQYRHRRFYYWGQGTQVTVSS”, the “polyreactivity (PSR sort gate)” value is recorded as “high polyreactivity”.

With “QVQLVESGGGLVQAGGSLRLSCAASRSIFRYYTMGWYRQAPGKETELVASISRGGSTNYADSVKGRFTISRDNAKNTVYLQMNSLKPEDTAVYDCAAGWTTRYFGGVDYWGQGTQVTVSS”, the “polyreactivity (PSR sort gate)” value is given as “high polyreactivity”.

In the case of “QVQLVESGGGLVQAGGSLRLSCAASRSIFTWYAMGWYIQEPGKERELVAAITRGGSTYADSVKWRFTISRDNAKYTVYLLMNSLKPEDTAVYDCNAFYGVYDFNYWGQGTHVTVSS”, the “polyreactivity (PSR sort gate)” value is given as “low polyreactivity”.

With “QVQLVESGGGLVQAGGSLRLSCAASRSIFVPYAMGWYRQAPGKERELVAVITSGGSTYYADSVKGRFTISRDNAKNTVYLQMNSLKPEDTAVYYCNADLYYVWSTLSQFDYWGQGTQVTVSS”, the “polyreactivity (PSR sort gate)” value is “low polyreactivity”.

As for “QVQLVESGGGLVQAGGSLRLSCAASRSIFYDYVMGWYRQAPGKEREFVAAISWGGDSTYYADSVKGRFTISRDNAKNTVYLQMISLKPEDTAVYYCNADYPWSVVGYDYWGQGTQVTVSS”, the “polyreactivity (PSR sort gate)” value is “low polyreactivity”.

As to “QVQLVESGGGLVQAGGSLRLSCAASRSIFYFYAMGWYRHAPWKERELVAAINSGGTTNYADSVKGRFTISRDNAKNTVYSQMNSLKPEDTAVYYCAARLLIRYYYWGQGTLVTVSS”, the “polyreactivity (PSR sort gate)” value is “high polyreactivity”.

For the sequence “QVQLVESGGGLVQAGGSLRLSCAASRSIFYSYALGWSRQAPGKEREWVADITITGSTYYADSVKGRFTISRDNAKNTVYLQMKSLKSEDTAVYFCNAVLAPGGYAYWGQGTQVTVSS”, the “polyreactivity (PSR sort gate)” value was “low polyreactivity”.

As for “QVQLVESGGGLVQAGGSLRLSCAASRSTFYIYVMGWYRQAPGKERELVAAISWSGGSTYYTDSVKGRFTISRDNAKNTVYLQMNSLNPEDTAVYYCNADAHWSVWSYIIDYDYWGEGTQVTVSS”, the “polyreactivity (PSR sort gate)” value is “low polyreactivity”.

“QVQLVESGGGLVQAGGSLRLSCAASRSTFYLNAMGWYRQAPGKERELVAAISSGGRTYYADSVKGRFTISRDNAKNTVYLQMNSLKPVDTAVYYCNAVRYLRGAYNYWGQGTQVTVSS”: the “polyreactivity (PSR sort gate)” value is “high polyreactivity”.

With “QVQLVESGGGLVQAGGSLRLSCAASRSTFYYYAMGWYRQAPGKERELVATISWSGDSTYADSVKGRFTISRDNAKNTVYLQMNRLKPEDTAVYYCATSGDWWGFRYDYLGQGTQVTVSS”, the “polyreactivity (PSR sort gate)” value was “low polyreactivity”.

For “QVQLVESGGGLVQAGGSLRLSCAASVFTFGQYTMGWYRQAPGKERELVAAITGSGGNTYYADSVKGRFTISRDNAKNTVYLQMNSLKPEDTAVYYCAVQWTYDQYYDYDYWGQGTQVTVSS”, the “polyreactivity (PSR sort gate)” value is recorded as “low polyreactivity”.

Turning to “QVQLVESGGGLVQAGGSLRLSCAASVFTFRGNAMGWYRQAPGKERELVAAITSSDDSTYYADSVKGRFTISRDNAKNTVYLQMNSLKPEDTAVYYCAAVANGYWTYEYWGQGTQVTVSS”, the “polyreactivity (PSR sort gate)” value is given as “low polyreactivity”.

Turning to “QVQLVESGGGLVQAGGSLRLSCAASVFTIPPYAMGWYRRAPGKERELVARITWSGDRTYYADSVKGRFTISRDNAKNTFYLQINSLKPEDTAVYYCADDSAQYYEMDYWGQGTQVTVSS”, the “polyreactivity (PSR sort gate)” value is listed as “high polyreactivity”.

As to “QVQLVESGGGLVQAGGSLRLSCAASVIIYHYYAMGWYRPAPGKERELVAAIDSGGSTYYADSVKGRFTISRDNAKNTVYLQMNSLKPEDTADYYCNAGPSVTSGYDYDYWGHGTQVTVSS”, the “polyreactivity (PSR sort gate)” value is “low polyreactivity”.

Consider “QVQLVESGGGLVQAGGSLRLSCAASVIIYLDNAMVWYRQAPRKEMEMVADITSSGGSTYYADSVKGRFTISRDNAKNTVSLQMNSLKPEDTAVYYCAATRPSYNDAESDYWGQGTQVTVSS”, for which the “polyreactivity (PSR sort gate)” value is on record as “low polyreactivity”.

Take “QVQLVESGGGLVQAGGSLRLSCAASVITFSYNAMGWYRQAPGKERELVAAISSNSDSTYYADSVKGRFTISRDIAKNTVYLQMNSLKPVDTAVYYCAADTPDAPDYSGFYYWGQGTQVTVSS”: the “polyreactivity (PSR sort gate)” value is “low polyreactivity”.

In the case of “QVQLVESGGGLVQAGGSLRLSCAASVLTFETYAMGWYRQAPGKERELVAAISFSGDSTYYADSVKGRFTISRDNAKNTVYLQMNSLKPEDTAVYYCAAEQYYAWYIVGPDYYYWGQGTQVTVSS”, the “polyreactivity (PSR sort gate)” value is “high polyreactivity”.

With “QVQLVESGGGLVQAGGSLRLSCAASVRIFYRYGMGLYRQAPGKERELVASITRGGSTYYADSVKGRFTISRDNAKNTVYLQMNSLKPEDTAVYYCATKSSAGYDYWGQGTQVTVSS”, the “polyreactivity (PSR sort gate)” value was “low polyreactivity”.

In the case of “QVQLVESGGGLVQAGGSLRLSCAASVRIYPYYDRGWYRQAPGKDRELVASTNYADSVKGRFTISRDNAKNTVYLQMNSLKPEDTAVYYCNKRIYGWGGSRYDYWGQGTQVTVSS”, the “polyreactivity (PSR sort gate)” value was “low polyreactivity”.
